tested on: K4 kissing-loop RNA reporter; test: apparent KD of K4 kissing-loop reporter; higher = weaker reporter binding; settings: Eterna round: R107; input ligand: FMN 200 uM
Protocol: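 RNA-MaP round R107: designed RNA switches with theophylline, tryptophan, arginine or FMN aptamers are transcribed on-chip within common flanks. They are titrated with a labelled K4 kissing-loop RNA reporter in RNA-MaP buffer (100 mM Tris pH 7.5, 80 mM KCl, 4 mM MgCl2), without ligand or with the indicated ligand. Median apparent KD per design.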
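Also: bound reporter read as fluorescence of individual clusters on recovered sequencing chips by microscopy, with normalized cluster intensities fitted with a binding model.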

“UUUUUAAACUCGGCCGCCACUCAAAUGGGAGUGAUGUUCCCAAAAUAAUAAAUAAAUAAUAAUAAGAGGACCGGGAGAAAUUUUU [Same State - Trytophan B]” and “GAUAAUAGAAUAGAUACCAGUCAAGACCUAGUGAUGUUAGGGAGAUAAGUAGAAUGAAUUGGCCCUUGGCAGCUAUAAUAGUAGG [Default title]” are within 1.5-fold of each other in “apparent KD of K4 kissing-loop reporter” value: 94 nM for the first, 92.4 nM for the second.

Going from “GCCGUACGCAUGGAUACCAGCUAUUAGAGUGAUGUUCUAUGGCCCUGCCAAUGGAGCUGUAGCCCUUGGCAGCCAUGCGUACGGC” to “GGGAGUAGUGCGGCCGCCACUGAGAAAGUAGAAGAAUAUAGUGAUGUUAUAUAGGAAUAAAAGAACAGGACCGGGCAUUAGAUUU [SSTRyptB.U]”, the “apparent KD of K4 kissing-loop reporter” value rises from 112 nM to 230 nM (2.1-fold).

First: AUAAACUUGCAGUGAUGUUGCAAGUAAGACUAGGAUAUCAGGAAACUGAGAAGGAGUCAUCUCCUUCAAACAUCACUAUGAAGGA [[K1]-[K2]-[F1]-[F2]-[F]'-[K]'-[F]''_Design5]
Second: AAUAGCCGUACUAGUGAUGUUAGUGUGGAUACCAGUUCAUGGACGAACCCUUGGCAGCCAUCAAAUAUAUAUGAGGGAUCAUCAC [theeternabot_exclusion_KL_Theo_A_47]
The “apparent KD of K4 kissing-loop reporter” value of the first is 1.7-fold higher: 507 nM for the first, 295 nM for the second.

First: CAUACUUGCCGACCGCGGCACGCUAGUGAUACCAGUAACACCGUCUACCCUUGGCAGCACGAGAGAGUGAUGUUUUCAGCAGCCA [theeternabot_sameState_KL_Theo_A_3]
Second: UUUGUAUCGGGAAGGAGCGUGAAUGAUAAUGGAUAUAGUGAUGUUAUAUAUAAGAACGAAUCACAGGUAGGUCGCCCGGAUGACU [SSArgB.P]
The “apparent KD of K4 kissing-loop reporter” value of the first is 1.9-fold higher: 1030 nM for the first, 546 nM for the second.

Going from “UGACAUUGCUCAGAUACCAGACUUGAGGAUCACCCAGGUGCCAAAUACGUACAAAUAAAAGUCCCUUGGCAGCUGAGCAAUGUCU [TheoBX 12]” to “GCCGUAGAUUGAAGGAGCGAGGCUAAUUAAAGACCGAGUGAUGUUCGGGAGCGUGAAACUCCUCAGGUAGGUCGCAAUCUACGGC”, the “apparent KD of K4 kissing-loop reporter” value rises from 72.1 nM to 217 nM (3-fold).

“GGGAGUAGUGCGGCCGCCACUGUGAAAGAAGAAGAAUAUAGUGAUGUUAUAUAGGAAGGGAAGAAUAGGACCGGGCAUUAGAUUU [SSTRyptB.aA]” and “CAAUGAGUAUAAGAUGAUAUCAUCACAGAAGGAGCGAGUGAUAACUCAGGUAGGUCGCUGAAUUUGUCGAGUGAUGUUCGAUAGA [whbob_SS_Arginine_A_sa119]” are within 1.5-fold of each other in “apparent KD of K4 kissing-loop reporter” value: 186 nM for the first, 209 nM for the second.

“CGGACUGCAGGAAGGAGCGGCGGACGGAGUGAUGUUCCGGGUAGUGAUGUUACCAAACACCGCCAGGUAGGUCGCCUGUUGCUCC [Same State Arginine B GF8]” and “AUUUUUUUAUCAGGAUAUUAGUGAUGGUUUUUUUUGUUAGUGAUGUUGAUAUUUGUUUUAUGUAUUUAAGAAGGGAUUGAGAUGU [tzzsullin]” are within 1.5-fold of each other in “apparent KD of K4 kissing-loop reporter” value: 161 nM for the first, 120 nM for the second.

First: GCGCGUCAUGUCAGCGGUGACACUGUCGAUACCAGCGCCGAAAGGCGCCCUUGGCAGCGACGUGCUGGAGUGAUGUUCCAGCGUC [#2 Exclusion - Theophylline A Attempt #24 (HarryS)]
Second: UUUCUUUUCUUUUGCGAUCCUAUCCCUUAUAAGGAUAUCUAGAAAUAGAGAAGGUAUGCAGUGAUGUUGCUUGGGAUAGGAUCGC
The “apparent KD of K4 kissing-loop reporter” value of the first is 1.9-fold lower: 163 nM for the first, 311 nM for the second.

Compared with “GAAGGUCAAAGACCUUCGUGCACACCUGAUACCAGUCGCGAAAGCGACCCUUGGCAGCAGGGUAGUGAUGUUGCCAGUGCACAAA [#14 K4 Theophylline A Same State]”, “UUCAGGUGUUCGGCCGCCACUCCAGUGAUGUUGGAGUGGCUUCACAAGGACCAGGACAAUGUAAGGAGGACCGGGAAUAUCUCAG [Vequleat]” is 6.7-fold lower in “apparent KD of K4 kissing-loop reporter” value: 865 nM for the first, 130 nM for the second.

Going from “GUAGCUAAAGAAGGAUAUCGGAUCCAAAUCAAGCAGUGAUGUUGCGUGAAGAUCGGCUCCAUGCCGCGAGAAGGUCUUUUCUGUU [theeternabot_sameState_KL_FMN_B_18]” to “AAUACUAUCAGAAGGAGCGUGGAAUAUUCAUCUGUAUCUAAUACGAGUGAUGUUCGUAAUUCACAGGUAGGUCGCUGAUUAAUAA [whbob_Ex_Arginine_B_2th157]”, the “apparent KD of K4 kissing-loop reporter” value rises from 179 nM to 274 nM (1.5-fold).

First: UGACUGGACUGAAGGAGCGAGCGAGACAAAGUCUCGAAUUUUCAGUGAUGUUGAUAUAUAACUCAGGUAGGUCGCAGUCUAGUCU [ArgBS 8 #SwitchBubble #StaticStem]
Second: UUAGCAGUAUACUGCAAGACCUAUACUGAUACCAGAGUCAAUUGACUCCCUUGGCAGCGGAUCGAGUGAUGUUCGUAAGGUCAUU [AK4.2 SS Theophylline A]
The “apparent KD of K4 kissing-loop reporter” value of the first is 1.9-fold lower: 395 nM for the first, 743 nM for the second.

“GGUGCGGGCUCGGCCGCCACUCCCGCGGGUCGUAAGGUCCGCUACUGAGUGAUGUUCGGUUGGAGGAGGACCGGGAGCCCGUGCC [#2 Exclusion - Tryptophan B Attempt #19 (HarryS)]” and “AACCAGCUUACUGUAAGCUGGUUGCUGGAUACCAGCUCGGAAACGAGCCCUUGGCAGCCAGAACUUGCAGUGAUGUUGCAAGUAA [Design11]” are within 1.5-fold of each other in “apparent KD of K4 kissing-loop reporter” value: 115 nM for the first, 150 nM for the second.

First: GUUGGGUGGGUUAAAGAAUUUGUCUGACAACGAGGACCGGUACGGCCGCCACUCGAGUGAUGUUCGAGAAGAAAGAAAGAAAGAA
Second: AACGGCCAGUCGGCCGCCACUCCAAGCAGUGAUGUUGCUAAGUUUCUAAAAGAGUGAUGUUCUUAGAGGACCGGGACUGAUGUAA [Exclusion Tryptophan B Gf 6]
The “apparent KD of K4 kissing-loop reporter” value of the first is 2-fold lower: 66.4 nM for the first, 130 nM for the second.

“AAUUUUAAUAAUAAAUAAUAAAUAAAUGAUACCAGUAUUUUUUUUUACCCUUGGCAGCAUAUAUAAGGGCAGUGAUGUUGCCAAA [Same State - Theophylline A]” and “AGUGAUAUAUGAGGAUAUGGGUUUGUUAAUGAGUUAGUUUUAGUGUUGUUUGGUUAGUGAUGUUAUUUAGAAGGCGUGAGUGAUG [vkkjkjmullin]” are within 1.5-fold of each other in “apparent KD of K4 kissing-loop reporter” value: 145 nM for the first, 103 nM for the second.

Going from “UAUGGAGUGAUGUUCCGUAUGACUGUCGAUACCAGCCUGUGCCUUGGCCCUUGGCAGCGAAAAGCAUCGGCUAAUGUCGCGUCAU [Onaraed]” to “UCAAGAGAACUUAAAUUUGAUCAACGCUCGCGAGGACCGGUACGGCCGCCACUCGACCGUUAGUGCCUCAUCCAGUGAUGUUGGG [theeternabot_sameState_KL_Trp_A_6]”, the “apparent KD of K4 kissing-loop reporter” value rises from 201 nM to 537 nM (2.7-fold).

Going from “AUCGUUGUCUGAGGAUAUCGAUUAACUGUAGUGAUGUUACAGAAAAUUCAUAUAAUAUUUUCUAUUCGAGAAGGCAGACUACGUA [JR_ExcFMNB_Sub017]” to “AAGAGCUAGGCGGCCGCCACUAGAUGUGAACACAUACAAGCCAGUGAUGUUGGUAUGAUGGACAGUAGGACCGGGCCUAGCUGAA [Exclusion - Tryptophan B (Freestyle 9)]”, the “apparent KD of K4 kissing-loop reporter” value rises from 167 nM to 353 nM (2.1-fold).

“AGACUACCACACUGUCAAUAGACAGUGAACUAGGAUAUGCUGAUAAGCAGAAGGAGUGAUGUUCCUAGGUAGUCAAUAAAAUAAU [FmnAX 13 #SwitchBubble #StaticStem #K4Early]” and “GGCUUGCCAGUGAUGUUGGCAUAUUCUGAAGGAGCGCGUGAAAACGCAGGUAGGUCGCAGAACCUUGCCAACUAUUUUAGUUGCC [Ex Arginine A K4 26]” are within 1.5-fold of each other in “apparent KD of K4 kissing-loop reporter” value: 349 nM for the first, 242 nM for the second.

“CUAUCCCGCCGUGUACGUAAUAUACGGUGCCGAGGACCGGUACGGCCGCCACUCGAUAAGCUUUGUCGGAGUGAUGUUCCGACCG [Maais]” and “GCACUCGAAAGAGUGCCUCUCGCCAUCACGUAGGAUAUCUGGAAACAGAGAAGGAUGGCAGUGAUGUUGCUUUCGAUGGCGAGAG” are within 1.5-fold of each other in “apparent KD of K4 kissing-loop reporter” value: 200 nM for the first, 165 nM for the second.

“GAUUGUGAUGGAAACAUCGCAAUCUCUGAAGGAGCGCGUGAAAACGCAGGUAGGUCGCAGGACGACUUUGACAGUGAUGUUGUCG [Ex Arginine A K4 4]” and “AAGUGUGUGGCGGCCGCCACUAGAAUCCAGUGAUGUUGGAAUAAUCAAAUAAAUAAUAAUAAACAUAGGACCGGGCCAUAUAGAA [Same State - Tryptophan B (Freestyle 1)]” are within 1.5-fold of each other in “apparent KD of K4 kissing-loop reporter” value: 186 nM for the first, 145 nM for the second.

Going from “AUGCGCGCGGCGGCCGCCACUCGCAUGAGAGUGAUGUUCUCGCCGUGACCGUAAGGUCGCGGUGUGAGGACCGGGCCGGGCUGCG [#2 Same State - Tryptophan B Attempt #22 (HarryS)]” to “ACAGUCGGCUGUGAUACCAGUCGUAUAACAACAUGUUGCAGUGAUGUUGCGAGAUAGGAUGACCCUUGGCAGCACUCAGUACGAC [Same State Theophylline B GF11]”, the “apparent KD of K4 kissing-loop reporter” value rises from 197 nM to 324 nM (1.6-fold).

“AAAUGAAGGGCUCGCAGUGAUGUUGCGAGACGAGGACCGGUACGGCCGCCACUCGGCCGCUACUUUGACUCGGGCUUUAAGCUAC [Usarusteer]” and “UGAUACCAGACGGCCGCCACUGCGCCAGUCAAUGACUGAGCGCGGUGGCGCUCAGUGAUGUUGAGCAGGACCGGGUCUGGUAUCU [Mod of Eli's TrypBX 8 v5]” are within 1.5-fold of each other in “apparent KD of K4 kissing-loop reporter” value: 148 nM for the first, 149 nM for the second.

“CCAUCGCUAUUCGAUACCAGCUACUUAGUGAUGUUAAGUUAAAAUCCACUGUAGGUGGAAAGCCCUUGGCAGCGAAUAGUGAUGG [Theophylline B K4 23]” was tested, and the “apparent KD of K4 kissing-loop reporter” value was 235 nM.

same assay, conditions: Eterna round: R107; input ligand: arginine 13.2 mM

“UUUUUAAACUCGGCCGCCACUCAAAUGGGAGUGAUGUUCCCAAAAUAAUAAAUAAAUAAUAAUAAGAGGACCGGGAGAAAUUUUU [Same State - Trytophan B]” and “GAUAAUAGAAUAGAUACCAGUCAAGACCUAGUGAUGUUAGGGAGAUAAGUAGAAUGAAUUGGCCCUUGGCAGCUAUAAUAGUAGG [Default title]” are within 1.5-fold of each other in “apparent KD of K4 kissing-loop reporter” value: 98.2 nM for the first, 106 nM for the second.

Going from “GCCGUACGCAUGGAUACCAGCUAUUAGAGUGAUGUUCUAUGGCCCUGCCAAUGGAGCUGUAGCCCUUGGCAGCCAUGCGUACGGC” to “GGGAGUAGUGCGGCCGCCACUGAGAAAGUAGAAGAAUAUAGUGAUGUUAUAUAGGAAUAAAAGAACAGGACCGGGCAUUAGAUUU [SSTRyptB.U]”, the “apparent KD of K4 kissing-loop reporter” value rises from 95.2 nM to 214 nM (2.2-fold).

“AUAAACUUGCAGUGAUGUUGCAAGUAAGACUAGGAUAUCAGGAAACUGAGAAGGAGUCAUCUCCUUCAAACAUCACUAUGAAGGA [[K1]-[K2]-[F1]-[F2]-[F]'-[K]'-[F]''_Design5]” and “AAUAGCCGUACUAGUGAUGUUAGUGUGGAUACCAGUUCAUGGACGAACCCUUGGCAGCCAUCAAAUAUAUAUGAGGGAUCAUCAC [theeternabot_exclusion_KL_Theo_A_47]” are within 1.5-fold of each other in “apparent KD of K4 kissing-loop reporter” value: 263 nM for the first, 268 nM for the second.

“CAUACUUGCCGACCGCGGCACGCUAGUGAUACCAGUAACACCGUCUACCCUUGGCAGCACGAGAGAGUGAUGUUUUCAGCAGCCA [theeternabot_sameState_KL_Theo_A_3]” and “UUUGUAUCGGGAAGGAGCGUGAAUGAUAAUGGAUAUAGUGAUGUUAUAUAUAAGAACGAAUCACAGGUAGGUCGCCCGGAUGACU [SSArgB.P]” are within 1.5-fold of each other in “apparent KD of K4 kissing-loop reporter” value: 722 nM for the first, 566 nM for the second.

Going from “UGACAUUGCUCAGAUACCAGACUUGAGGAUCACCCAGGUGCCAAAUACGUACAAAUAAAAGUCCCUUGGCAGCUGAGCAAUGUCU [TheoBX 12]” to “GCCGUAGAUUGAAGGAGCGAGGCUAAUUAAAGACCGAGUGAUGUUCGGGAGCGUGAAACUCCUCAGGUAGGUCGCAAUCUACGGC”, the “apparent KD of K4 kissing-loop reporter” value rises from 55.6 nM to 180 nM (3.2-fold).
